Assay results reported in patent US20190256586A1 (Johns Hopkins, published 2019).

Target: T1, recombinant PSSP17 (117 amino acid fragment of P. falciparum PSSP17 with a HIS tag, expressed in E. coli) (Plasmodium falciparum)
T1 construct: Antigen used to raise 10E2B7 and 27C9B5; spiked into naive human saliva in the lateral flow assays; also called recombinant PfPSSP17; recombinant subunit PSSP17; not shown: HIS tag from the expression vector
T1 chain: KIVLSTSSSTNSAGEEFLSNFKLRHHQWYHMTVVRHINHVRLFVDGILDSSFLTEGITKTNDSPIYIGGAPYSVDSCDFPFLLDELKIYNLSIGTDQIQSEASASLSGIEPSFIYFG
Assay: sandwich lateral flow immunoassay (gRAD strip, streptavidin test line); lower limit of detection of recombinant PSSP17 printed as 1-5 ng/mL

B1: anti-PSSP17 mAb 10E2.B7 IgG (antibody, V domains shown)
VH: EVQLVESGGDLVKPGGSLKLSCAASGFTFSSYGMSWVRQTPDKRLEWVATISSGGSYIYYPDSMKGRFTMSRDNAKNTLYLQMSSLKSEDTAMYYCAREERDWLAYWGQGTLVTVSA
VL: DVVMTQSPLSLPVSLGDQASISCRSSQSLIHNNGDIYVHWYLQKPGQSPKLLIYKVSNRFSGVPDRFSGSGSGTDFTFKISRVEAEDLGVYFCSQSSHVPPTFGGGTKLEIK
notes: Used biotinylated (20:1 biotin:antibody) as the capture antibody of the SMAART-PSSP17 lateral flow assay; also called biotinylated anti-PSSP17 10E2.B7; Bio-Ab
Q: Does B1 bind?
A: binds

B2: anti-PF3D7_1218800 mAb 27C9.B5 IgG (antibody, V domains shown)
VH: QVQVRQSGAEVVRPGTSVRVSCKTSGYAFTDYLIEWVKQRPGQGLEWIGVINPVRGTTNYSEKFKGKATLTADKSSGTAYMQFYSLTSDDSAVYFCARSRGSDGFPYWGQGTLVTVSA
VL: DVLMTQTPLSLPVSLGDQASISCRSSQSIVHSNGYTYLEWYLQKPGQSPKLLIYKLSNRFSGVPDRFSGSGSGTDFTLKISRVEAEDLGVYYCFQGSHIPYTFGGGTKLEIK
notes: Used covalently coupled to Europium(III)-chelate carboxylate polystyrene microparticles as the detection antibody of the SMAART-PSSP17 lateral flow assay; also called EuChelate nanoparticle-conjugated anti-PSSP17 27C9.B5 mAb; MP-27C9.B5 conjugate
Q: Does B2 bind?
A: binds
